Measurements from paper PMC10786891, “Massively parallel profiling of RNA-targeting CRISPR-Cas13d”.
Numbering of substitutions follows the chain as printed. Names and notes keep the numbering of the source.

T1: EsCas13d, nuclease-dead (Eubacterium siraeum, UniProt B0MS50, R295A;H300A;R849A;H854A)
T1 sequence: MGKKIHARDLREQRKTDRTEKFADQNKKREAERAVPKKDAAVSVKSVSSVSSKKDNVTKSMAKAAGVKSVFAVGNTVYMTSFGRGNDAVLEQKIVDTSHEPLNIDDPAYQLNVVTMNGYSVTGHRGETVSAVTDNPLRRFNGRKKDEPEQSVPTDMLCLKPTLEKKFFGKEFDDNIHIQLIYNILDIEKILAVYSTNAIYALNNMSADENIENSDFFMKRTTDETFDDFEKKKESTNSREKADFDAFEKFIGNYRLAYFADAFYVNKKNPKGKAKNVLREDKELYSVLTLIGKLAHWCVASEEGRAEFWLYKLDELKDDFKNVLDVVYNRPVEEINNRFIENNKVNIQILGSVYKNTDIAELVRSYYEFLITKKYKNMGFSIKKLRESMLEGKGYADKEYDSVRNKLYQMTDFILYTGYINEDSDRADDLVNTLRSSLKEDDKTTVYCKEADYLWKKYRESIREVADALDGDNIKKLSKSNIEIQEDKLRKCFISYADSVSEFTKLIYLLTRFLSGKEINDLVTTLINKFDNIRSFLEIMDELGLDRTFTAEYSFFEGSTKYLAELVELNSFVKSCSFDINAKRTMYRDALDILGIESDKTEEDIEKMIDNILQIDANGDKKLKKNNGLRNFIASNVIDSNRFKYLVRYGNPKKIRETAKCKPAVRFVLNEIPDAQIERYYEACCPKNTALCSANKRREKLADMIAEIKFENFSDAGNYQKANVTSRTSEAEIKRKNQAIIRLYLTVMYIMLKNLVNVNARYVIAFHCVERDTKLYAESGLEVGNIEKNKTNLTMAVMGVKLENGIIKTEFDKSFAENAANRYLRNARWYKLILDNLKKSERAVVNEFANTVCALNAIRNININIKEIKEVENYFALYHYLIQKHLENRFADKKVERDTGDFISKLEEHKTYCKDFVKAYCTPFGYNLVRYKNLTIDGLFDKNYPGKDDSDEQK

B1: target 1 MT 5'PFS AUA 3'PFS UUG (mixed)
RNA 1: CACCCGUGCAAAAAUGCAGGGGUCUAAAACUGAGCGGAUAACCUCUCUAUGG
RNA 2: GGGAAUGGAUCCACAUCUACGAAUUCAUACCAUAGAGAGGUUAUCCGCUCAUUGAGAUCGGAAGAGCACACGU
B2: target 1 MT 5'PFS GGG 3'PFS GGU (mixed)
RNA 1: B1 RNA 1
RNA 2: B1 RNA 2 with A27G, U28G, A29G, U52G, U53G, G54U
B3: target 1 MT 5'PFS CUU 3'PFS CGC (mixed)
RNA 1: B1 RNA 1
RNA 2: B1 RNA 2 with A27C, A29U, U52C, U53G, G54C
B4: target 1 MT 5'PFS ACA 3'PFS UAG (mixed)
RNA 1: B1 RNA 1
RNA 2: B1 RNA 2 with U28C, U53A
B5: target 1 U3C,C6U (mixed)
RNA 1: B1 RNA 1
RNA 2: B1 RNA 2 with A27G, C46U, U49C, U52C, U53C
B6: target 1 MT 5'PFS UCC 3'PFS CAG (mixed)
RNA 1: B1 RNA 1
RNA 2: B1 RNA 2 with A27U, U28C, A29C, U52C, U53A
B7: target 1 MT 5'PFS GGA 3'PFS UUC (mixed)
RNA 1: B1 RNA 1
RNA 2: B1 RNA 2 with A27G, U28G, G54C
B8: target 1 MT 5'PFS AGA 3'PFS AGA (mixed)
RNA 1: B1 RNA 1
RNA 2: B1 RNA 2 with U28G, U52A, U53G, G54A
B9: target 1 MT 5'PFS GCC 3'PFS UCA (mixed)
RNA 1: B1 RNA 1
RNA 2: B1 RNA 2 with A27G, U28C, A29C, U53C, G54A
B10: target 1 MT 5'PFS CAC 3'PFS AAG (mixed)
RNA 1: B1 RNA 1
RNA 2: B1 RNA 2 with A27C, U28A, A29C, U52A, U53A
B11: target 1 insU 3' of 6,insA 3' of 4 (mixed)
RNA 1: B1 RNA 1
RNA 2: GGGAAUGGAUCCACAUCUACGAAUUCGUACCAUAGAGAGGUUAUCCUGCAUCACCGAGAUCGGAAGAGCACACGU
B12: target 1 MT 5'PFS GCC 3'PFS UCC (mixed)
RNA 1: B1 RNA 1
RNA 2: B1 RNA 2 with A27G, U28C, A29C, U53C, G54C
B13: target 1 MT 5'PFS UGU 3'PFS ACU (mixed)
RNA 1: B1 RNA 1
RNA 2: B1 RNA 2 with A27U, U28G, A29U, U52A, U53C, G54U
B14: target 1 MT 5'PFS UCC 3'PFS CAU (mixed)
RNA 1: B1 RNA 1
RNA 2: B1 RNA 2 with A27U, U28C, A29C, U52C, U53A, G54U
B15: target 1 MT 5'PFS GGG 3'PFS AGG (mixed)
RNA 1: B1 RNA 1
RNA 2: B1 RNA 2 with A27G, U28G, A29G, U52A, U53G
B16: target 1 MT 5'PFS UCG 3'PFS CUU (mixed)
RNA 1: B1 RNA 1
RNA 2: B1 RNA 2 with A27U, U28C, A29G, U52C, G54U
B17: target 1 MT 5'PFS UGC 3'PFS UAC (mixed)
RNA 1: B1 RNA 1
RNA 2: B1 RNA 2 with A27U, U28G, A29C, U53A, G54C
B18: target 1 MT 5'PFS GGA 3'PFS UUU (mixed)
RNA 1: B1 RNA 1
RNA 2: B1 RNA 2 with A27G, U28G, G54U
B19: target 1 MT 5'PFS ACU 3'PFS CCG (mixed)
RNA 1: B1 RNA 1
RNA 2: B1 RNA 2 with U28C, A29U, U52C, U53C
B20: target 1 MT 5'PFS CAC 3'PFS AAC (mixed)
RNA 1: B1 RNA 1
RNA 2: B1 RNA 2 with A27C, U28A, A29C, U52A, U53A, G54C
B21: target 1 MT 5'PFS GGG 3'PFS AGU (mixed)
RNA 1: B1 RNA 1
RNA 2: B1 RNA 2 with A27G, U28G, A29G, U52A, U53G, G54U
B22: target 1 MT 5'PFS UCC 3'PFS CAA (mixed)
RNA 1: B1 RNA 1
RNA 2: B1 RNA 2 with A27U, U28C, A29C, U52C, U53A, G54A
B23: target 1 MT 5'PFS UAG 3'PFS UGA (mixed)
RNA 1: B1 RNA 1
RNA 2: B1 RNA 2 with A27U, U28A, A29G, U53G, G54A
B24: target 1 MT 5'PFS GGA 3'PFS UUG (mixed)
RNA 1: B1 RNA 1
RNA 2: B1 RNA 2 with A27G, U28G
B25: target 1 MT 5'PFS AGA 3'PFS AGU (mixed)
RNA 1: B1 RNA 1
RNA 2: B1 RNA 2 with U28G, U52A, U53G, G54U
B26: target 1 MT 5'PFS UGU 3'PFS ACA (mixed)
RNA 1: B1 RNA 1
RNA 2: B1 RNA 2 with A27U, U28G, A29U, U52A, U53C, G54A
B27: target 1 MT 5'PFS GGG 3'PFS AGA (mixed)
RNA 1: B1 RNA 1
RNA 2: B1 RNA 2 with A27G, U28G, A29G, U52A, U53G, G54A
B28: target 1 MT 5'PFS GCC 3'PFS UCU (mixed)
RNA 1: B1 RNA 1
RNA 2: B1 RNA 2 with A27G, U28C, A29C, U53C, G54U
B29: target 1 MT 5'PFS AGA 3'PFS AGC (mixed)
RNA 1: B1 RNA 1
RNA 2: B1 RNA 2 with U28G, U52A, U53G, G54C
B30: target 1 MT 5'PFS CUA 3'PFS CUC (mixed)
RNA 1: B1 RNA 1
RNA 2: B1 RNA 2 with A27C, U52C, G54C
B31: target 1 MT 5'PFS GGG 3'PFS AGC (mixed)
RNA 1: B1 RNA 1
RNA 2: B1 RNA 2 with A27G, U28G, A29G, U52A, U53G, G54C
B32: target 1 MT 5'PFS AUU 3'PFS AAG (mixed)
RNA 1: B1 RNA 1
RNA 2: B1 RNA 2 with A29U, U52A, U53A
B33: target 1 MT 5'PFS AUA 3'PFS UUC (mixed)
RNA 1: B1 RNA 1
RNA 2: B1 RNA 2 with G54C
B34: target 1 MT 5'PFS GCC 3'PFS UCG (mixed)
RNA 1: B1 RNA 1
RNA 2: B1 RNA 2 with A27G, U28C, A29C, U53C
B35: target 1 MT 5'PFS GAC 3'PFS AAU (mixed)
RNA 1: B1 RNA 1
RNA 2: B1 RNA 2 with A27G, U28A, A29C, U52A, U53A, G54U
B36: target 1 MT 5'PFS GGA 3'PFS UUA (mixed)
RNA 1: B1 RNA 1
RNA 2: B1 RNA 2 with A27G, U28G, G54A
B37: target 1 G12A,A20C (mixed)
RNA 1: B1 RNA 1
RNA 2: B1 RNA 2 with A27G, A32C, G40A, U52C, U53C
B38: target 1 MT 5'PFS GAA 3'PFS AGU (mixed)
RNA 1: B1 RNA 1
RNA 2: B1 RNA 2 with A27G, U28A, U52A, U53G, G54U
B39: target 1 MT 5'PFS UGU 3'PFS ACG (mixed)
RNA 1: B1 RNA 1
RNA 2: B1 RNA 2 with A27U, U28G, A29U, U52A, U53C
B40: target 1 MT 5'PFS UCG 3'PFS UAC (mixed)
RNA 1: B1 RNA 1
RNA 2: B1 RNA 2 with A27U, U28C, A29G, U53A, G54C

molecular target: T1, EsCas13d, nuclease-dead; experiment: crRNA (strand 1, pre-loaded); Mg2+; 40 mM Tris-HCl pH 7.5, 150 mM NaCl, 6 mM MgCl2, 1 mM DTT, 0.1% Tween-20, 0.2 mg/ml BSA; 25 C; 10 min per concentration, then washed; settings: tags: His6-TwinStrep-SUMO cleaved; N-terminal SNAP kept (SNAP-Surface 488); label: 3' end held by stalled T7 RNA polymerase

Question: How did the Kd turn out when B1 was run?
Answer: 10.8 ± 2.45 nM

Question: For B2, which Kd is on record?
Answer: 61 ± 14 nM

Question: How did the Kd turn out when B3 was run?
Answer: 18 ± 6 nM

Question: B4 was tested. Which Kd did it give?
Answer: 11.2 ± 4.95 nM

Question: Which Kd does the source give for B5 here?
Answer: 14.4 ± 1.9 nM

Question: With B6 as the binder, how does the Kd read?
Answer: ~60 nM

Question: Which Kd does the source give for B7 here?
Answer: 13.3 ± 2.5 nM

Question: B8 was tested. Which Kd did it give?
Answer: 70.5 ± 31.5 nM

Question: For B9, which Kd is on record?
Answer: 27.5 ± 10 nM

Question: With B10 as the binder, how does the Kd read?
Answer: 42 ± 17 nM

Question: B11 was tested. Which Kd did it give?
Answer: 7.9 ± 0.6 nM

Question: With B12 as the binder, how does the Kd read?
Answer: 12.6 ± 4.75 nM

Question: For B13, which Kd is on record?
Answer: 34.5 ± 13.5 nM

Question: With B14 as the binder, how does the Kd read?
Answer: 13 ± 5.5 nM

Question: For B15, which Kd is on record?
Answer: 50.5 ± 8.5 nM

Question: Which Kd does the source give for B16 here?
Answer: 24.5 ± 6.5 nM

Question: Which Kd does the source give for B17 here?
Answer: 32 ± 10.5 nM

Question: B18 was tested. Which Kd did it give?
Answer: 13.4 ± 4.15 nM

Question: With B19 as the binder, how does the Kd read?
Answer: ~115 nM

Question: B20 was tested. Which Kd did it give?
Answer: ~34.5 nM

Question: Which Kd does the source give for B21 here?
Answer: 30.4 ± 4.65 nM

Question: Which Kd does the source give for B22 here?
Answer: ~18 nM

Question: For B23, which Kd is on record?
Answer: 34.5 ± 8 nM

Question: For B24, which Kd is on record?
Answer: 8.9 ± 0.8 nM

Question: With B25 as the binder, how does the Kd read?
Answer: 44.5 ± 18 nM

Question: With B26 as the binder, how does the Kd read?
Answer: 71 ± 18 nM

Question: How did the Kd turn out when B27 was run?
Answer: 23.9 ± 3.1 nM

Question: How did the Kd turn out when B28 was run?
Answer: 12.2 ± 2.85 nM

Question: With B29 as the binder, how does the Kd read?
Answer: ~42.5 nM

Question: Which Kd does the source give for B30 here?
Answer: 7.15 ± 3.05 nM

Question: For B31, which Kd is on record?
Answer: 20.5 ± 4.5 nM

Question: How did the Kd turn out when B32 was run?
Answer: 95 ± 40 nM

Question: How did the Kd turn out when B33 was run?
Answer: 16.5 ± 5.5 nM

Question: With B34 as the binder, how does the Kd read?
Answer: 15.3 ± 3 nM

Question: B35 was tested. Which Kd did it give?
Answer: ~50 nM

Question: With B36 as the binder, how does the Kd read?
Answer: 14.2 ± 3.1 nM

Question: B37 was tested. Which Kd did it give?
Answer: 42 ± 9 nM

Question: B38 was tested. Which Kd did it give?
Answer: 43 ± 11.5 nM

Question: How did the Kd turn out when B39 was run?
Answer: ~80 nM

Question: B40 was tested. Which Kd did it give?
Answer: 22.5 ± 9 nM
